How the values were obtained:
Assay in all cases: radiochemical methyl transfer from (3H)SAM, nonlinear regression
Type in all cases: biochemical, Gallus gallus
[1] = substrate: C[S+](CC[C@H](N)C(=O)O)C[C@H]1O[C@@H](n2cnc3c(N)ncnc32)[C@H](O)[C@@H]1O; details: 20 mM carnosine, variable (1H+3H)SAM, 1 mM MgCl2, pH 7.5, 37 °C, labelled compound
Source text: (§1) radiochemical methyl transfer from (3H)SAM, nonlinear regression on chicken HNMT-like protein (recombinant carnosine N-methyltransferase)

[2] = substrate: NCCC(=O)N[C@@H](Cc1cnc[nH]1)C(=O)O; details: non-saturating 1 µM SAM, 1 mM MgCl2, pH 7.5, 37 °C
Source text: as §1

[3] = substrate: C[S+](CC[C@H](N)C(=O)O)C[C@H]1O[C@@H](n2cnc3c(N)ncnc32)[C@H](O)[C@@H]1O; details: 20 mM carnosine, variable (1H+3H)SAM, 1 mM MgCl2, pH 7.5, 37 °C, labelled compound; remark: listed apart in the source
Source text: (§2) radiochemical methyl transfer from (3H)SAM, nonlinear regression on carnosine N-methyltransferase (native, chicken pectoral muscle)

[4] = substrate: NCCC(=O)N[C@@H](Cc1cnc[nH]1)C(=O)O; details: non-saturating 1 µM SAM, 1 mM MgCl2, pH 7.5, 37 °C; remark: listed apart in the source
Source text: as §2

B1: chicken HNMT-like protein (recombinant carnosine N-methyltransferase) (Gallus gallus) (protein)
chain: MEPTPEMKRNRLPSMNFEAEILADPHDNSELYVIPSMRSLTAEEYVEAFQSFLDHSTEHQCMDEFNKEVMPHIMAGLGNGKSTINILGVGSGTGEQDLKMIQILQAAHPGVLINNEIIEPNPQHVAAYKELVNRAPDLQGVSFTWHQLTSSEYEQQVKEKNTHKKFDFIHMIQMLYRVEDIPNTIKFFHSCLNHQGKLLIIILSDSSGWASLWKKYRHCLPSTDSGHYITSDSITAVLRKLGIKYHVYEFPSGWDITECFIEGDPAGGHMMDFLTGTKNFLGTAPAALRSRLQEALCQPECSSRKDGRVIFCNNLSMIVAES
notes: full-length ORF from pectoral muscle cDNA, C-terminal His6 tag (pEF6/Myc-His A), expressed in COS-7, HisTrap purified to homogeneity, monomer about 38 kDa (36 kDa without tag)
B1 was tested, and the Km [1] was 14 ± 1 µM, the Vmax [1] was 0.786 µmol/min/mg and the kcat [1] was 0.519 ± 0.013 s⁻¹. For the same protein, the Km [2] was 1628 ± 71 µM, the Vmax [2] was 0.0519 µmol/min/mg and the kcat [2] was 0.034 ± 0.001 s⁻¹.

B2: carnosine N-methyltransferase (native, chicken pectoral muscle) (Gallus gallus) (protein)
chain: B1 chain
notes: about 45 kDa by gel filtration
With B2 the Km [3] was 11 ± 1 µM, the Vmax [3] was 0.153 µmol/min/mg and the kcat [3] was 0.093 ± 0.002 s⁻¹. The Km [4] was 1646 ± 157 µM, the Vmax [4] was 0.0138 µmol/min/mg and the kcat [4] was 0.008 s⁻¹.

From publication PMC3660329, “Molecular Identification of Carnosine N-Methyltransferase as Chicken Histamine N-Methyltransferase-Like Protein (HNMT-Like)” (PLoS ONE, 2013)
